Reference: the nanobody polyreactivity screen of Harvey et al. (2022)

Assay: yeast display, Sf9 membrane polyspecificity reagent, FACS + sequencing; frameworks hold sequencing errors
Method in brief: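 After 36–48 hours of galactose induction, yeast (Saccharomyces cerevisiae BJ5465) displaying a synthetic nanobody library were stained at 4 °C for 1 hour with 10% biotinylated, detergent-solubilized Sf9 membrane reagent. Streptavidin microbeads enriched the stained cells before FACS sorting into low and high (top ~1%) gates on anti-HA and streptavidin fluorescence. Each clone's polyreactivity label reflects its gate of origin.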

QVQLVESGGGLVQAGGSLRLSCAASGFAFSYYAMGWYRPAPGKEREFVASIDWSGGSTYYADSVKGRFTISRDNAKNTVYLQMTSLKPEDTAVYYCAAELDYFPGYDYWGQGTQVTVSS
polyreactivity (PSR sort gate): low polyreactivity

QVQLVELGGGLVQAGGSLRLSCAASGLTLYYYAMGWYRQEPGKERELVAAINRGGSTYYADSVKGRFTISRDNAKNTVYLQMNSLKPEATAVYYCAVDYGVRDLTYYYWGQGTQVTVSS
polyreactivity (PSR sort gate): low polyreactivity

QVQLVESGGGLVQAGGSLRLSCAASGYTFYANAMGWYRQAPGKEREFVASNTWSGGSTYYADSVKGRFTISRDTAKITVYLQMNSLKPEDTAVYYWAAESWFNYDYWGQGTQVTVSS
polyreactivity (PSR sort gate): low polyreactivity

QVQLVESGGGLVQAGGSLRLSCAASGSTFNSYAMGWYRQAPGKERELVAAISWSGGSTYYADSVKGRFTISRDNAKNTVYLQMNSLKPEDPAVYYCNADYWWEYAYGVDYWGQGTQVTVSS
polyreactivity (PSR sort gate): low polyreactivity

QVQLVESGGGLVQAGGSLRLSCAASGRIFSGNAMGWYRQAPGKERELVAAISGSGGSTYYADSVKGRFTISRDNAKNTVYLQMNSLKPEDTAVYYCADRYTVRRSGYWGQGTQVTVSS
polyreactivity (PSR sort gate): high polyreactivity

QVQLVESGGGLVQAGGSLRLSCAASGRIFDIYAMGWYRPAPRKERELVAAITRRGGTTYADSVKGRFTISRDNAKNTVYLQMNSLKPEVNAVYYCAAGLYFRKWYSWTRYEYWGQGTQVTVSS
polyreactivity (PSR sort gate): high polyreactivity

QVQLVESWGGLVQAGGSLRLSCAASGINFWVYAMGWYRQAPGQERELVAAISRRGGSTSYADSVKGRFTISRDNAKNTVYLQMKSLKPEDTAVYFCAATTYTHPYGYWGQGTQVTVSS
polyreactivity (PSR sort gate): high polyreactivity

QVQLVESGGGLVQAGGSLRLSCAASGIIFGTNAMGWYRQAPGKERELVAGITSSGDSTYYADSVKGRFTISRDNAKNTVYLQMNSLKPEDTAVYYCARDIRTREFDSWGQGTQVTVSS
polyreactivity (PSR sort gate): low polyreactivity

QVQLVESGGGLVQAGGSLGLSCAASGLIFQAYAMGWYRQAPGKERELVAAINWSGDSTYYADSVKGRFTISRDNAKYTVYLQMNSLKPEDTAVYYCAARYRRAKYGYWGQGTQVTVSS
polyreactivity (PSR sort gate): high polyreactivity

QVQLVDSGGGLVQAGGSLRLTCAASGSIFPRNVMGWYRHAPGKERELVAAISSRATRTYYADSVKGRFTISRDNAKNTVYLQMNSLKPEDTAVYYCAADRTLYSSGYYYWGQGSQVTVSS
polyreactivity (PSR sort gate): high polyreactivity

QVQLEESGGGLVQAGGSLRLSCAASGFTLEYYAMGWYRKAPGKERELVAVITESDGNTYYADSVKGRFTISRDNAKNTVYLQMNSLKPEDTAVYYCAAEYRDGYRFSYDYWGQGTQVTVSS
polyreactivity (PSR sort gate): low polyreactivity

QVQLVESGGGLVQAGGSLRLSCAASGRIFYGNVMGWYRQAPGKERELVAVITSGGNTNYADSVKGRFTISRDNAKNTVYLQMNSLKPEDTAVYYCATAVVAGVWGYDYWGQGTQVSVSS
polyreactivity (PSR sort gate): low polyreactivity

QVQLVESGGGLVQAGGSLRLSCAASGRTFDAYAMGWYRQAPGKERELVATITSGGGTYYADSVKGRFTISRDNAKNTVYLQMNSLKPEDTAVYYCNISYVVSRKYDYWGQGTQVTVSS
polyreactivity (PSR sort gate): low polyreactivity

QDQLVESGGGLVQAGGSLRLSCAASGSILRQYAMGWYRQAPGKERELVATITGDGSTNYADSVKGRFTISRDNAKNTVYLQMHSLKPEDTAVYYCAVIGYHYSAISPPSQTRQGYDYWGQGTQVTVSS
polyreactivity (PSR sort gate): low polyreactivity

QVQLVESGGGLVQAAGSLRLSCAASVITFVKNAMGWYRQAPGKERELVARIRIGGSTSYADSVKGRFTISRDYAKNTFYLQLNSLKPEDTAVYYCARYAGRLSYRYEYWGQGTQVTVSS
polyreactivity (PSR sort gate): high polyreactivity

QVQLVESGGGLVQAGGSLRLSCAASGLIFGRNAMGWYRQAPGKERELVAAINNSGGTTYYADSVKGRFTISRDNAKNTVYLQMNSLKPEDTAVYYCNAYFRNWRYSPGGYWGQGTQVTVSS
polyreactivity (PSR sort gate): high polyreactivity

QVQLVESGGGLVQAGGSLRLSCAASGYIFEEYDMGWYRQAPGKERELVAAISASGGSTYYADSVKGRFTISRDNAKNTVYLQMNSLKPEDTAVYYCAADAVREVYGSWDDYWGQGTQVTVSS
polyreactivity (PSR sort gate): low polyreactivity

QVQLVESGGGLVQAGGSLRLSCAASGRIFGINAMGWYRQAPGKERELVAAITWSGDGTYDADSVKGRFTISRDNAKNTVYLQMNSLKPEDTAVYYCAKQLPEISQMDYWGQGTQVTVSS
polyreactivity (PSR sort gate): low polyreactivity

QVHLVVSGGGLVQAGGSLRLSCAASGLTIWYYAMGWYRQAPGKESEFVAAITSRGGDTYYADSVKGRFTISRDNAKNTVYLQMNSLKPEDTAVYYCAVRPRYYGTYRYYYWGQGTQVTVSS
polyreactivity (PSR sort gate): high polyreactivity

QVQLVESGGGLVQAGGSLRLSCAASGSTFARYAMGWYRQAPGKERELVAVITQSGSSTYYADSVKGRFTISRDNAKNTVYLQMNSLKPEDTAVYYCAAVGIDYTRYGRYWYSYDYWGQGTQVTVSS
polyreactivity (PSR sort gate): high polyreactivity

QVQLVESGGCLVQAGGSIRLSCAASGSIFKSNAMGWYRQAPGKERELVAAISNGGITNYADSVKVRFTISRDNAKNTDYLQMNSLKPEDTAVYYCNARNNYWWYCPGYDYWGQGTQLTVSS
polyreactivity (PSR sort gate): low polyreactivity

QVQLVESGGGLVQAGGSLRLSCAASGSTFPYYGMGWYRQAPGKERELVAAINSGGSTYYADSVKGRFTISRDNAKNTVYLQMNSLKPEDTAVYYCNAAYPEWYAYDYWGQGTQVTVSS
polyreactivity (PSR sort gate): low polyreactivity

QVQLVESGGGLVQAGGSLRLSCAASGRTFKPYAMGWYRQAPGKERELVAAISSGVSTHYADSVKGRFTISRDNAKNTVYLQMNSLKPEDTAVYYCAADRSSQFDLDYWGQGTRVTVSS
polyreactivity (PSR sort gate): low polyreactivity

QVQLVESGGGLVQAGGSLRLSCAASGRIFGVYAMGWYRQAPGKERELVAAIYSGSSTYYADSVKGRFTISRDNAKNTVYLQMNSLKPEDTAVYYCNADTPYWVRWKYDYWGQGTQVTVSS
polyreactivity (PSR sort gate): low polyreactivity

QVQLVESGGGLVQAGGSLRLSCAASGRIFRYYVMGWYRQAPGKERELVAAISRSGGTTYYADSVKGRFTISRDNAKNTVYLQMNSLKPEDTAVYYCAAVYGRDPGDYWGQGTQVTVSS
polyreactivity (PSR sort gate): high polyreactivity

QVQLVESGGGLVQAGGSLRLSCAASGFIFVEYAMGWYRQAPGKERELVAAISGRDGSTYYADSVKGRFTISRDNAKNTVYLQMNSLKPEDTAVYYCAADRIHSVTRYDYDYWGQGTQVTVSS
polyreactivity (PSR sort gate): low polyreactivity

QVQLVESGGGLVQAGGSLRLRCAASGSTFAWYAMGWYRQAPGKERELVAAISRTGRTYYADSVKGRFTISRDNAKNTVYLQMNSLKPEDTAVYYCAARIERFYRDQRYDYWGQGTQVTVSS
polyreactivity (PSR sort gate): high polyreactivity

QVQLVESGGGLVQAGGSLRLSCAASGRIFVRYAMGWYRQAPGKEREWVAVSTTGGARTRDADSVKGRFTISRDNAKNSVYLQMNSLKPEDTGVYYCAAQTYSQRWYDYWGQGTQVTVSS
polyreactivity (PSR sort gate): high polyreactivity

QVQLVESGGGLVQAGGSLRLSCAASGSIFDLYAKGWYRQAPGKERELVAGISYSGGSTYYADSVKGRFTISRDNAKNTVYLQMNSLKPEDTAVYYCATAYYYHGGYYYPYDDYWGQGTQVTVSS
polyreactivity (PSR sort gate): low polyreactivity

QVQLVESGGGLVQAGGTLRLSCAASGFIINRYAMGWYRQPPGKERELVAAISWSGGRTYYADSVKGRFTISRDNAKNTVSLQMNSLKPEDTAVYYCAADSYTSLDGRDYWGQGTQVTVSS
polyreactivity (PSR sort gate): high polyreactivity

QVQLVESGGGLVQAGGSLRLSCAASGIIFSGNAMGWYRQAPGKERELVAAITRGGRTYYADSVKGRFTISRDNAKNTVYLQMNSLKPEDTAVYYCAAGYPYSYRDYYYWGQGTQVTVSS
polyreactivity (PSR sort gate): high polyreactivity

QVQLVESGGGLVQAGGSLRLSCAASGYTFKAYAMGWNIQAPGKERELVAAISWSGARTYYAYSVKGRFTISRDNAKNTVYLEMNRLKPEYTAVYYCAASNAVYAGRSYRDEYWGQGTQVTVSS
polyreactivity (PSR sort gate): high polyreactivity

NVQLVESGGGLVQAGGSLRLSCAASGGIFYRYAMGWYRQAPGKEWELVATISRRGGRTYYADSVKGRFTISRDNEKNTVYLQMNSLKPEDTAVYYCAADEWQSGHCLEDDYWGQGTQVTVSS
polyreactivity (PSR sort gate): high polyreactivity

QVQLVESGGGLVQAGGSLRLSCAASGFIFDVYAMGWYRQAPGTERELVAAITSGDGTNYADSVKGRFTISRDNAKNTVYLQMNSLKPEETAVYYCAADDGVTYRGIIFSYWGQGTQVTVSS
polyreactivity (PSR sort gate): low polyreactivity

QVQLVESGGGVVQAGGSLRLSCAASGTFYLYAMGWYRQAPGKERELVAAISGSGSTNYADSVKGRFTISRDNAKNTVYLQMNSLKPEDTAVYYCAAYQRYDSVTGARYEYDYWGQGTQVTVSS
polyreactivity (PSR sort gate): low polyreactivity

QVQLVESGGGLVQAGGSLRLSCAASGFTFFYNAMGWYRQAPGKEREFVAAISGRGGTTYYADSVKGRFTISRDNAKNTVYLQMNSLKPEDTAVYYCAAYYRGYAYNYWGQGTQVTLSS
polyreactivity (PSR sort gate): high polyreactivity

QVQIVESGGGLVQAGGSLRLSCTASGRIFYRYAMGWYRQAPGKERELVAAIRYSGGRTYYADSVKGRFTISRDNAKNTVYLQMNSLKQEDTAVYYCAADGQWYYAPFRGGVYENDYWGQGTQVTVSS
polyreactivity (PSR sort gate): low polyreactivity

QVQLVESGGGLVQAGGSLRLSCAASRSTLSTYAMGWYRQAPGTERELVAAITWSDDSTYYADSVKGRFTISRDNAKNTVYLQMNSLKPEDTAVYYCAAEYISWFFGYDYWGQGTQVTVSS
polyreactivity (PSR sort gate): high polyreactivity

QVQLVESGGGLVQAGGSLRLSCAASGIIIDTNAMGWYRQAPGTERELVASISKRGGSTYYADSVKGRFTISRDNAKNTVYLQMNSLKPEDTAVYYCNALRRRQYHDDYWGQGTQVTVSS
polyreactivity (PSR sort gate): high polyreactivity

QVHLVESGGGLVQAGGSLRLSCAASGIIFGHYDMGWYRQAPGKERELVAAITFTGDSTYADSVKGRFTISRDNAMNTVYLQMNSLKPEDTAVYYCNASVKPSNVWSRGYDYWGQGTQVTVSS
polyreactivity (PSR sort gate): low polyreactivity

QVQLVESGGGLVQAGGSLRLSCAASGSTFSSLIMGCYRQAPGKERELVAAISRSGGRTYYADSVKGRFTISRDNAKNTVYLQMNSLKPEDTAVYYCAADYVSVDRIRYGYWGQGTQVTVSS
polyreactivity (PSR sort gate): high polyreactivity

QVQLVESGGGLFQAGGSLRLSCAASGRTFGYYAMGWYRQAPGKERELVAAITGDATTYYADSVKGRFTISRDNAKNTVYLQMNSLQPEDTAVYYCDALFTPALSEYDYWGQGTQVTVSS
polyreactivity (PSR sort gate): high polyreactivity

QVQLVESGGGLVQAGGSLRLRCAASGRTFAINALGWYRQAPGKEREDVASITTSGGRTYYADSVKGRFTISRDNAKNTVYLQMNSLKPEDTAVYYCNAGSYVGSWRFPYYYWGQGTQVTVSS
polyreactivity (PSR sort gate): high polyreactivity
